Target: SARS-CoV 2P DS S (SARS-CoV) (UniProt P59594)
Experiment: negative-stain electron microscopy

**Q.** “SARS-CoV 2P DS S (from UniProt P59594 14-1195) (domain or fragment)” was tested. Which stoichiometry N did it give?
**A.** 3

Source: article PMC7302216
